Each sequence was assayed on K4 kissing-loop RNA reporter (assay: apparent KD of K4 kissing-loop reporter; higher = weaker reporter binding). Details: Eterna round: R107; input ligand: FMN 200 uM.
Experimental: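 RNA-MaP round R107: designed RNA switches with theophylline, tryptophan, arginine or FMN aptamers are transcribed on-chip within common flanks. They are titrated with a labelled K4 kissing-loop RNA reporter in RNA-MaP buffer (100 mM Tris pH 7.5, 80 mM KCl, 4 mM MgCl2), without ligand or with the indicated ligand. Median apparent KD per design.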
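Further: bound reporter read as fluorescence of individual clusters on recovered sequencing chips by microscopy, with normalized cluster intensities fitted with a binding model.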

Sequence	apparent KD of K4 kissing-loop reporter [nM]
AUUUGUUUAUGUGAUACCAGACUUUGCAGUGAUGUUGCAUUUAUUUUAGAAUUUUAUUUAGUCCCUUGGCAGCACUAUGUAUUUA [JR_SSTheophyB_Sub007]	47
UGUACCGAGUCAGGAUAUCAAAAUAAUUGGAGUGAUGUUCCAAAUACGACUGACAAAGUCGGUCGAUGAGAAGGGACUUGGUACU [FmnBS 11 #SwitchBubble #StaticStem]	118
CAUACGCAUGGAGGAUAUGAGAUUACUCAUAUCAUUUAAUAUUCUCAGUGAUGUUGAGAUUUAGGCUCAGAAGGCCAUGUGUAUG [Ex FMN B 14]	271
CGCGUGGGUUUGAGAGGGUUUGCGCGAAGUGAGGAUAUUUAGGGAGAAAGAAGGCACUAUAAAAUAUAGUGAUGUUAUAUAAGGG [SSFMNA.J]	877
ACAUCGGUUGAGAGUGAUGUUCCUUGUGUUCGAGGACCGGUACGGCCGCCACUCGGGUAGAAAAUAAAAGAUGUGUUUGAUUUUU [BDazzled - #15 SS Tryptophan A]	260
AAUAAAAUCACGGCCGCCACUGAAUAAUUGGUAAGUAGUGAUGUUACUUUACUUUUCUUAUUUAACAGGACCGGGUGAAUAUUUA [JR_ExcTryptoB_Sub009]	104
GAUAUAGUGAUGUUAUAUAAGAAGGAGUUACGAGGACCGGUACGGCCGCCACUCGAAACGAGUGAUGAUUUGGGAGAUUGGGUUG [SSTryptA.O]	380
GAACGGCGGGCGGCCGCCACUGGUAUACGAGUGAUGUUCGGAUAUACGUGAUGUAAGGUAAUUAACAGGACCGGGUCAGGGCCGG [whbob_SS_Tryp_B_t20]	278
AUGUCUGAUAGCAGUGAUGUUGCUUCGGAUACCAGACGCGAUCUUGUCCCUUGGCAGCUGACACGGCACGUGCUAGGUUAGAAGG [whbob_Ex_Theo_A_th75]	169
CCCUUAGACUCGGCCGCCACUCGUACCGAGAGCAUGCCACCCAUUAGUGAUGUUAAUUUGUCCUUGAGGACCGGGAGCCUAGGAA [theeternabot_exclusion_KL_Trp_B_44]	941
UGACUGGACUGAAGGAGCGCGAAACUCCUAGUGAUGUUAGGACAACGAGACAAAGUCUCGACGCAGGUAGGUCGCAGUCUAGUCU	148
GAGGGCUCGGGAGGAUAUGAGUCUAGUGAUGUUAGGCGGUCCAUGCGCGUGGCGCGUUAUGCCCUUUUAGAAGGCCCGAGCCCGC [#2 Exclusion - FMN B Attempt #23 (HarryS)]	109
CCAUCGCUAUUCGAUACCAGCUACUUAGUGAUGUUAAGUUUAUAUCCACUGUAGGUGGAAAGCCCUUGGCAGCGAAUAGUGAUGG [Theophylline B K4 25]	436
GGGCUGGUGCUAGGAUAUGCGAUGAAUGCUCAGAAAACCUUGAGUCCGCAGUGAUGUUGCGGCACCGCAGAAGGAGCUAAGGCUC [Reorinraor]	129
UGUACCGAGUCAGGAUAUGGCGUCGAAAGACGAAACCAGUGAUGUUGGAAUAUCGACGAAAGUCGUCCAGAAGGGACUUGGUACU [FmnBS 17 #SwitchBubble #StaticStem #DoubleMagnetSystem]	153
GUAUGUGGAAACACGUACUUGUAUCCUAAGCAGGAUAUGCGGAAACGCAGAAGGGCUACCAGCGAGUUUAUCCAGUGAUGUUGGA [Ex FMN A 12]	289
AAUUUCGGAUACAUCAUAGUUUUAAUUCGGCGAGGACCGGUACGGCCGCCACUCGGUAUAGACGCGUCCAGUGAUGUUGGCGCUU [theeternabot_sameState_KL_Trp_A_45]	262
UGGAUAUCGUUUAGUCUGGUGAGCUCAGAUACCAGACUAGCGAUGGUCCCUUGGCAGCUGAUUACGAUUGAGUGAUGUUCAAUCG [Theo A Ex t9c]	168
UUUAUUAAGACGGCCGCCACUGAAUUAGAGUGAUGUUCUAAAAUUUUUAAUUUUUUUUUUUUCAGCAGGACCGGGUCAAUUAUUA [JR_SSTryptoB_Sub012]	128
AACGUUUUGAGAAGGAGCGCGAUAAGCAGUGAUGUUGCUAUAAUUCUAUUUCUAUUUAAUUCGCAGGUAGGUCGCUCAAUACGUA [JR_SSArginiB_Sub019]	136
AAGGUAUCACCACAACAUCACUAAGGUGAUACCAGCAUCGAAAGAUGCCCUUGGCAGCACCAACUUGCAGUGAUGUUGCAAGUAA [(T)'-(H)'-(T1)-(T2)-(H1)-(H2)_Design9]	417

Sequence	apparent KD of K4 kissing-loop reporter [nM]
GCAGGACGAGGAGGAGGAUGAAUUACUGAAGGAGCGCAUAUUUUUGCAGGUAGGUCGCGGUAAACAAGUAUAGUGAUGUUAUAUA [SSArgA.M]	415
CUGGGUUGACGAAAAGUCAACAAAUGAGAAGGAGCGCACGAAAGUGCAGGUAGGUCGCUCAAUCCAGUGAUGUUGGGUCAUCCAG [#SwitchBubble 13 #K4Late]	856
ACCCGGGCCCGAAAGGGCCCGGGAAGAGAUACCAGCAGCGAAAGCUGCCCUUGGCAGCUCACUUAGUGAUGUUGAGAAUAGGGCG [#21 K4 Theophylline A Same State]	657
GGCAGUGAUGUUGCCAGUGGCAGAUGAGAAGGAGCGUGGUGAGACACAGGUAGGUCGCUCAUUGAAAUUGCUGUCACUAAAAUGC [#5]	289
GAUUUAGAGGCGGCCGCCACUAGUGAUGUUAGUGAUGUUUGAUACGGAAUAUAUCUGCGAGUAGAUAGGACCGGGCCAGAUGGAG [rttrbmullin]	207
UUAUAUAAUUUGUCUUUUUUAACAUUAAGUCAGGAUAUCGUAUAUUCGAGAAGGGACACAUGCUAGUGAUGUUAGCUAUUUCUUU [JR_ExcFMNA_Sub016]	31.7
AUACGUUUAAGUGAUACCAGACUGGUGAGUGAUGUUUACCAAUAAAUUAAAUUAUUAGCUGUCCCUUGGCAGCACAGUUUAUUUA [JR_ExcTheophyB_Sub005]	258
UGAGUGAUGUUCAAGGACUAGAUCUAAAUAAAGGAUAUAGCAUACGCUAGAAGGUUAAAAUUUCUGGAUCCCAGUUUAAACCUUU [theeternabot_sameState_KL_FMN_A_49]	246
UGGCGUUGAACCGCCGAAUCGCUGUGAGAAGGAGCGGUAAAAUUGCCAGGUAGGUCGCUCACAGCUUCACAGUGAUGUUGUGGAA [Enxeisen]	248
ACGUAGUACGUAGGAUAUCAGAGAUCAGUUAGUGAGAUCGAGUGAUGUUCGAUCAAGUGUUCAUUUUGAGAAGGAUGUAGUAGGA [KL-SSFMN-B7]	263
GGAGAGCGGAACGAUACCAGCUGCGGCACGCACCGGAAGUUAAGCCAGUGAUGUUGGCGGAGCCCUUGGCAGCGUGCGCGCGUCC [Abeusma]	122
GGUUGAAGUACCCGGAGUGAUGUUCCGGAUACCAGCAAACCAACUUGCCCUUGGCAGCCGUAUAGCGUCCGGUGGACCGAGCAUA [Soriesreve]	98.5
GCCGAAUCGUUGGGCUCAGUGAUGUUGAUCCGAGGACCGGUACGGCCGCCACUCGAAUGGCAGUGACCACACUGGUAACGUUAAA [theeternabot_exclusion_KL_Trp_A_43]	573
GGAGUUACCUGGGAUACCAGUCGGAGUCUCAGAGCACGGAGUGAUGUUCUGGGAUGUUUCGGCCCUUGGCAGCUCUGGGACUCCA [#2 Exclusion - Theophylline B Attempt #15 (HarryS)]	317
UCUGGUAUAUCUGAUACCAGAGAAUAGAAUCAAUUGAAUAUGGAGUGAUGUUCCAUAAAACUCCCUUGGCAGCAGAUAAUCAUAU [Same State Theophylline B GF 22]	113
AGACCUCAGUGAUGUUGAGGUAACGCUGAUACCAGUGACUUAAUUCACCCUUGGCAGCAGUCCACCAAGGUAUCUGAUUAGGUCU [Theo A Ex t5]	153
CUUUAUCAACCAGAUACCAGCGGUUCUCUAGUUGGCUUCCGUAGUGAUGUUGCGUGGUCCCGCCCUUGGCAGCUGGCCAUGACUA [theeternabot_sameState_KL_Theo_B_5]	1060
AGGAGCGUGGGAUGGAAAUCGCACGCUCCUCGAGGACCGGUACGGCCGCCACUCGCUCGCGCCGAGUGAUGUUCGGCCGGCGAAC [#2 Same State - Tryptophan A Attempt #11 (HarryS)]	131
UAGUAGUAGCGAGGAUAUGCAAUAGGCGAGUGAUGUUCGCCAGGCGGGCGUCGCAUAUAAGAAAGAGCAGAAGGCGCUAGGUAGA [SameState - FMN B / A]	814
AAGCAGUCACUCGAAGCCAUCGAAGAUGGCCGAGGACCGGUACGGCCGCCACUCGGAGUGAUGUUCCGAAGACUGCAAAAUAAAA	313
AACGGCCAGUCGGCCGCCACUCAAAGCAGUGAUGUUGCUAACUUUCUAAAAGAGUGAUGUUCUUAGAGGACCGGGACUAAUGUAA [Exclusion Tryptophan B GF 2]	115

Same assay, conditions: Eterna round: R107; input ligand: arginine 13.2 mM

Sequence	apparent KD of K4 kissing-loop reporter [nM]
AUUUGUUUAUGUGAUACCAGACUUUGCAGUGAUGUUGCAUUUAUUUUAGAAUUUUAUUUAGUCCCUUGGCAGCACUAUGUAUUUA [JR_SSTheophyB_Sub007]	90.4
UGUACCGAGUCAGGAUAUCAAAAUAAUUGGAGUGAUGUUCCAAAUACGACUGACAAAGUCGGUCGAUGAGAAGGGACUUGGUACU [FmnBS 11 #SwitchBubble #StaticStem]	122
CAUACGCAUGGAGGAUAUGAGAUUACUCAUAUCAUUUAAUAUUCUCAGUGAUGUUGAGAUUUAGGCUCAGAAGGCCAUGUGUAUG [Ex FMN B 14]	362
CGCGUGGGUUUGAGAGGGUUUGCGCGAAGUGAGGAUAUUUAGGGAGAAAGAAGGCACUAUAAAAUAUAGUGAUGUUAUAUAAGGG [SSFMNA.J]	186
ACAUCGGUUGAGAGUGAUGUUCCUUGUGUUCGAGGACCGGUACGGCCGCCACUCGGGUAGAAAAUAAAAGAUGUGUUUGAUUUUU [BDazzled - #15 SS Tryptophan A]	42.1
AAUAAAAUCACGGCCGCCACUGAAUAAUUGGUAAGUAGUGAUGUUACUUUACUUUUCUUAUUUAACAGGACCGGGUGAAUAUUUA [JR_ExcTryptoB_Sub009]	83.4
GAUAUAGUGAUGUUAUAUAAGAAGGAGUUACGAGGACCGGUACGGCCGCCACUCGAAACGAGUGAUGAUUUGGGAGAUUGGGUUG [SSTryptA.O]	330
GAACGGCGGGCGGCCGCCACUGGUAUACGAGUGAUGUUCGGAUAUACGUGAUGUAAGGUAAUUAACAGGACCGGGUCAGGGCCGG [whbob_SS_Tryp_B_t20]	208
AUGUCUGAUAGCAGUGAUGUUGCUUCGGAUACCAGACGCGAUCUUGUCCCUUGGCAGCUGACACGGCACGUGCUAGGUUAGAAGG [whbob_Ex_Theo_A_th75]	125
CCCUUAGACUCGGCCGCCACUCGUACCGAGAGCAUGCCACCCAUUAGUGAUGUUAAUUUGUCCUUGAGGACCGGGAGCCUAGGAA [theeternabot_exclusion_KL_Trp_B_44]	789
